Results as given in PMC9946822, “Widely conserved AHL transcription factors are essential for NCR gene expression and nodule development in Medicago”.

What was measured:
Assay in all cases: EMSA; 0-300 ng protein titration; EMSA as in Chen (ref. 37), 10 ng probe and 200 ng protein (titration 0-300 ng), SYBR Gold stain; binding buffer, pH and temperature not stated; protein eluted in BS/THES (22 mM Tris-HCl pH 7.5, 4.4 mM EDTA, 8.9% sucrose, 62 mM NaCl, 10 mM HEPES, 5 mM CaCl2, 50 mM KCl, 12% glycerol) with 150 mM imidazole
Details in all cases: protein: recombinant; tags: His (pET28a); blunt
MtAHL2 = MtAHL2 (Medicago truncatula, UniProt G7KSI4 1-269)
MtAHL1 = MtAHL1 (Medicago truncatula, UniProt G7JGG2 1-296)
GmAHL1 = GmAHL1 (Glycine max, UniProt C6TMY6 1-268)

Measured: binding result

Sequence of MtAHL1 (G7JGG2 entry or part of it): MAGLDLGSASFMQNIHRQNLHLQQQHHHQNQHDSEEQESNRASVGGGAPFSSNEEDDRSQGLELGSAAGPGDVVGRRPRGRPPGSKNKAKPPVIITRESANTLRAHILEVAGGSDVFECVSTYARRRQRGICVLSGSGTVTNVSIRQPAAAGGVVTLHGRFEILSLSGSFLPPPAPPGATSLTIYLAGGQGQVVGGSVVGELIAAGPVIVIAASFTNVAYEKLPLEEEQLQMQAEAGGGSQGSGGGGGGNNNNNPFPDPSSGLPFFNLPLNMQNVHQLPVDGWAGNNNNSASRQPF
Sequence of GmAHL1 (C6TMY6 entry or part of it): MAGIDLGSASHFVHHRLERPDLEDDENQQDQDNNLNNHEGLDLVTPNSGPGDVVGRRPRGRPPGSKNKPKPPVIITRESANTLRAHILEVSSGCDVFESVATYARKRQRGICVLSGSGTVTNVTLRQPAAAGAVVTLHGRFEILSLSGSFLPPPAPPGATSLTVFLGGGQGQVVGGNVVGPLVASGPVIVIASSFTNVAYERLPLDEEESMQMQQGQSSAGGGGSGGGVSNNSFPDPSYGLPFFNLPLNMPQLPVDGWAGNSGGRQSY
Sequence of MtAHL2 (G7KSI4 entry or part of it): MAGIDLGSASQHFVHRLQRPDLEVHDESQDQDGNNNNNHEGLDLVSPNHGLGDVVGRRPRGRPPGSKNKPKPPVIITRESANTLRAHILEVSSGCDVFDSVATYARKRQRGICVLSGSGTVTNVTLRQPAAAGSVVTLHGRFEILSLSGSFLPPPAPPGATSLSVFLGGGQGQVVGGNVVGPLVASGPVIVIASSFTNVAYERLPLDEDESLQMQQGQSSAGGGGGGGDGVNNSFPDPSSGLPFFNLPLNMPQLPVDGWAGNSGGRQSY

B1: probe H0 (dsDNA)
DNA 1: TTAATAATTATTTTAATTTTCAAAAAGTATTAATTAC
DNA 2: GTAATTAATACTTTTTGAAAATTAAAATAATTATTAA
binds: all assays above
